Measured values reported in IntAct's records for PubMed 31515488.

B1: STAM-binding protein (Homo sapiens), O95630 (parent)
chain: MSDHGDVSLPPEDRVRALSQLGSAVEVNEDIPPRRYFRSGVEIIRMASIYSEEGNIEHAFILYNKYITLFIEKLPKHRDYKSAVIPEKKDTVKKLKEIAFPKAEELKAELLKRYTKEYTEYNEEKKKEAEELARNMAIQQELEKEKQRVAQQKQQQLEQEQFHAFEEMIRNQELEKERLKIVQEFGKVDPGLGGPLVPDLEKPSLDVFPTLTVSSIQPSDCHTTVRPAKPPVVDRSLKPGALSNSESIPTIDGLRHVVVPGRLCPQFLQLASANTARGVETCGILCGKLMRNEFTITHVLIPKQSAGSDYCNTENEEELFLIQDQQGLITLGWIHTHPTQTAFLSSVDLHTHCSYQMMLPESVAIVCSPKFQETGFFKLTDHGLEEISSCRQKGFHPHSKDPPLFCSCSHVTVVDRAVTITDLR
B2: Keratin-associated protein 26-1 (Homo sapiens), Q6PEX3 (parent)
chain: MSCPNYCSGNSNSGSLRTSRHIPLTSIDLCPTSVSCGDVLYLPTSSQDHTWVTDNCQETCGEPTSCQPVHCETGNLETSCGSSTAYYVPRPCQGSSFLPASFFSSSCLPVSCRPQRYVSSGCRPLRPLLNSYQPIGDCVPNAYRPQFCLSKSCQPQNLLTSGCQPSSCLAYRPQSLHVVSSSLRPLGPLFSGCQPLTHVFSTCRPSCSGL
B3: Ribose-phosphate pyrophosphokinase 1 (Homo sapiens), P60891 (parent)
chain: MPNIKIFSGSSHQDLSQKIADRLGLELGKVVTKKFSNQETCVEIGESVRGEDVYIVQSGCGEINDNLMELLIMINACKIASASRVTAVIPCFPYARQDKKDKSRAPISAKLVANMLSVAGADHIITMDLHASQIQGFFDIPVDNLYAEPAVLKWIRENISEWRNCTIVSPDAGGAKRVTSIADRLNVDFALIHKERKKANEVDRMVLVGDVKDRVAILVDDMADTCGTICHAADKLLSAGATRVYAILTHGIFSGPAISRINNACFEAVVVTNTIPQEDKMKHCSKIQVIDISMILAEAIRRTHNGESVSYLFSHVPL
partner: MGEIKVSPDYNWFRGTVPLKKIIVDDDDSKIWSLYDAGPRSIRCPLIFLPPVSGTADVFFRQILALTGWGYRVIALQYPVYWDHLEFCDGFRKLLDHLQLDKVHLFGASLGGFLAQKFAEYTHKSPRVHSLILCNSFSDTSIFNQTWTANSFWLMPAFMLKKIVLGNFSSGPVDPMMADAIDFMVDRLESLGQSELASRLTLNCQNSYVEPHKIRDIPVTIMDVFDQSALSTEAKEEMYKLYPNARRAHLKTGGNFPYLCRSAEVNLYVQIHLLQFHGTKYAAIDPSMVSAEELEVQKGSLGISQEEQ
B4: 5'-AMP-activated protein kinase subunit beta-2 (Homo sapiens), O43741 (parent)
chain: MGNTTSDRVSGERHGAKAARSEGAGGHAPGKEHKIMVGSTDDPSVFSLPDSKLPGDKEFVSWQQDLEDSVKPTQQARPTVIRWSEGGKEVFISGSFNNWSTKIPLIKSHNDFVAILDLPEGEHQYKFFVDGQWVHDPSEPVVTSQLGTINNLIHVKKSDFEVFDALKLDSMESSETSCRDLSSSPPGPYGQEMYAFRSEERFKSPPILPPHLLQVILNKDTNISCDPALLPEPNHVMLNHLYALSIKDSVMVLSATHRYKKKYVTTLLYKPI
partner: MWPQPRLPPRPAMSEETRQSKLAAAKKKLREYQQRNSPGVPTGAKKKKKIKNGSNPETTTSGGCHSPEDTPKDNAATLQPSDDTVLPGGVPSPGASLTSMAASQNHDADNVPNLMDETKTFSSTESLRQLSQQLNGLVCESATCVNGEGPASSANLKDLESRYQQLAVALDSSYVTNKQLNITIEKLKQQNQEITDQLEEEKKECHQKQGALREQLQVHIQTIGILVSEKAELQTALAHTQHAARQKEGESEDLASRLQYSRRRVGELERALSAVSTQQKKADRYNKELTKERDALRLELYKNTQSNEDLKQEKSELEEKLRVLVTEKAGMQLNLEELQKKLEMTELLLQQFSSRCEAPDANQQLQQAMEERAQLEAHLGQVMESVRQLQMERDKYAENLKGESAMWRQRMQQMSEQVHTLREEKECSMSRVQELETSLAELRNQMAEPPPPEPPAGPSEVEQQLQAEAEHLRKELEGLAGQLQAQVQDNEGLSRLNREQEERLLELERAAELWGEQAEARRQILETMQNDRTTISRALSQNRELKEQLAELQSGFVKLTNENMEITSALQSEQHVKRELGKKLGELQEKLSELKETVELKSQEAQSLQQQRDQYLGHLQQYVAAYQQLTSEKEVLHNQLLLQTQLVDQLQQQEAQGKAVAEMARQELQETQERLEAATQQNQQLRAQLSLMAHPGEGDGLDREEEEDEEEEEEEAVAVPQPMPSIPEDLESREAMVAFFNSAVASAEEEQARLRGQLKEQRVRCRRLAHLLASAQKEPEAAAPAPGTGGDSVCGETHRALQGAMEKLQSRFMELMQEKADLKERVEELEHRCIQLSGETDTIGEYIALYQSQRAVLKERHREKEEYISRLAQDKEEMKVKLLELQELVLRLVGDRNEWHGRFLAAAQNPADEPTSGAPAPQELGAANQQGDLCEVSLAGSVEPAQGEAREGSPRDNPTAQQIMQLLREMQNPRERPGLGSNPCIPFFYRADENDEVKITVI

Variants of: B1
Conditions: with grb2_human GRB2, P62993

| effect of a mutation on the interaction | Variant |
| --- | --- |
| disrupting interaction strength | MSDHGDVSLPPEDRVRALSQLGSAVEVNEDIPPRRYFRSGVEIIRMASIYSEEGNIEHAFILYNKYITLFIEKLPKHRDYKSAVIPEKKDTVKKLKEIAFPKAEELKAELLKRYTKEYTEYNEEKKKEAEELARNMAIQQELEKEKQRVAQQKQHQLEQEQFHAFEEMIRNQELEKERLKIVQEFGKVDPGLGGPLVPDLEKPSLDVFPTLTVSSIQPSDCHTTVRPAKPPVVDRSLKPGALSNSESIPTIDGLRHVVVPGRLCPQFLQLASANTARGVETCGILCGKLMRNEFTITHVLIPKQSAGSDYCNTENEEELFLIQDQQGLITLGWIHTHPTQTAFLSSVDLHTHCSYQMMLPESVAIVCSPKFQETGFFKLTDHGLEEISSCRQKGFHPHSKDPPLFCSCSHVTVVDRAVTITDLR [Q155H] |
| with no effect | MSDHGDVSLPPEDRVRALSQLGSAVEVNEDIPPRRYFRSGVEIIRMASIYSEEGNIEHAFILYNKYITLFIEKLPKHRDYKSAVIPEKKDTVKKLKEIAFPKAEELKAELLKRYTKEYTEYNEEKKKEAEELARNMAIQQELEKEKQRVAQQKQQQLEQEQFHAFEEMIRNQELEKERLKIVQEFGKVDPGLGGPLVPDLEKPSLDVFPTLTVSSIQPSDCHTTVRPAKPPVVDRSLKPGALSNSESIPTIDGLHHVVVPGRLCPQFLQLASANTARGVETCGILCGKLMRNEFTITHVLIPKQSAGSDYCNTENEEELFLIQDQQGLITLGWIHTHPTQTAFLSSVDLHTHCSYQMMLPESVAIVCSPKFQETGFFKLTDHGLEEISSCRQKGFHPHSKDPPLFCSCSHVTVVDRAVTITDLR [R255H] |

Variants of: B1
Conditions: with stam2_human STAM2, O75886

| effect of a mutation on the interaction | Variant |
| --- | --- |
| disrupting interaction strength | MSDHGDVSLPPEDRVRALSQLGSAVEVNEDIPPRRYFRSGVEIIRMASIYSEEGNIEHAFILYNKYITLFIEKLPKHRDYKSAVIPEKKDTVKKLKEIAFPKAEELKAELLKRYTKEYTEYNEEKKKEAEELARNMAIQQELEKEKQRVAQQKQHQLEQEQFHAFEEMIRNQELEKERLKIVQEFGKVDPGLGGPLVPDLEKPSLDVFPTLTVSSIQPSDCHTTVRPAKPPVVDRSLKPGALSNSESIPTIDGLRHVVVPGRLCPQFLQLASANTARGVETCGILCGKLMRNEFTITHVLIPKQSAGSDYCNTENEEELFLIQDQQGLITLGWIHTHPTQTAFLSSVDLHTHCSYQMMLPESVAIVCSPKFQETGFFKLTDHGLEEISSCRQKGFHPHSKDPPLFCSCSHVTVVDRAVTITDLR [Q155H] |
| with no effect | MSDHGDVSLPPEDRVRALSQLGSAVEVNEDIPPRRYFRSGVEIIRMASIYSEEGNIEHAFILYNKYITLFIEKLPKHRDYKSAVIPEKKDTVKKLKEIAFPKAEELKAELLKRYTKEYTEYNEEKKKEAEELARNMAIQQELEKEKQRVAQQKQQQLEQEQFHAFEEMIRNQELEKERLKIVQEFGKVDPGLGGPLVPDLEKPSLDVFPTLTVSSIQPSDCHTTVRPAKPPVVDRSLKPGALSNSESIPTIDGLHHVVVPGRLCPQFLQLASANTARGVETCGILCGKLMRNEFTITHVLIPKQSAGSDYCNTENEEELFLIQDQQGLITLGWIHTHPTQTAFLSSVDLHTHCSYQMMLPESVAIVCSPKFQETGFFKLTDHGLEEISSCRQKGFHPHSKDPPLFCSCSHVTVVDRAVTITDLR [R255H] |

Variants of: B2
Conditions: with grn_human GRN

| effect of a mutation on the interaction | Variant |
| --- | --- |
| disrupting interaction strength | MSCPNYCSGNSNSGSLRTSRHIPLTYIDLCPTSVSCGDVLYLPTSSQDHTWVTDNCQETCGEPTSCQPVHCETGNLETSCGSSTAYYVPRPCQGSSFLPASFFSSSCLPVSCRPQRYVSSGCRPLRPLLNSYQPIGDCVPNAYRPQFCLSKSCQPQNLLTSGCQPSSCLAYRPQSLHVVSSSLRPLGPLFSGCQPLTHVFSTCRPSCSGL [S26Y] |

Variants of: B2
Conditions: with ccnjl_human CCNJL

| effect of a mutation on the interaction | Variant |
| --- | --- |
| with no effect | MSCPNYCSGNSNSGSLRTSRHIPLTYIDLCPTSVSCGDVLYLPTSSQDHTWVTDNCQETCGEPTSCQPVHCETGNLETSCGSSTAYYVPRPCQGSSFLPASFFSSSCLPVSCRPQRYVSSGCRPLRPLLNSYQPIGDCVPNAYRPQFCLSKSCQPQNLLTSGCQPSSCLAYRPQSLHVVSSSLRPLGPLFSGCQPLTHVFSTCRPSCSGL [S26Y] |

Variants of: B3
Conditions: with spg21_human SPG21, Q9NZD8

| effect of a mutation on the interaction | Variant |
| --- | --- |
| with no effect | MPNIKIFSGSSHQDLSQKIADRLGLELGKVVTKKFSNQETCVEIGESVRGEDVYIVQSGCGEINDNLMELLIMINACKIASASRVTAVIPCFPYARQDKKDKSRAPISAKLVANMLSVAGADHIITMDLHASQIQGFFDIPVDNLYAEPAVLKWIRENISEWRNCTIVSPDAGGAKRVTSIAHRLNVDFALIHKERKKANEVDRMVLVGDVKDRVAILVDDMADTCGTICHAADKLLSAGATRVYAILTHGIFSGPAISRINNACFEAVVVTNTIPQEDKMKHCSKIQVIDISMILAEAIRRTHNGESVSYLFSHVPL [D183H] |
| with no effect | MPNIKIFSGSSHQDLSQKIADRLGLELGKVVTKKFSNQETCVDIGESVRGEDVYIVQSGCGEINDNLMELLIMINACKIASASRVTAVIPCFPYARQDKKDKSRAPISAKLVANMLSVAGADHIITMDLHASQIQGFFDIPVDNLYAEPAVLKWIRENISEWRNCTIVSPDAGGAKRVTSIADRLNVDFALIHKERKKANEVDRMVLVGDVKDRVAILVDDMADTCGTICHAADKLLSAGATRVYAILTHGIFSGPAISRINNACFEAVVVTNTIPQEDKMKHCSKIQVIDISMILAEAIRRTHNGESVSYLFSHVPL [E43D] |

Variants of: B4
Conditions: with goga2_human GOLGA2, Q08379

| effect of a mutation on the interaction | Variant |
| --- | --- |
| with no effect | MGNTTSDRVSGERHGAKAARSEGAGGHAPGKEHKIMVGSTDDPSVFSLPDSKLPEDKEFVSWQQDLEDSVKPTQQARPTVIRWSEGGKEVFISGSFNNWSTKIPLIKSHNDFVAILDLPEGEHQYKFFVDGQWVHDPSEPVVTSQLGTINNLIHVKKSDFEVFDALKLDSMESSETSCRDLSSSPPGPYGQEMYAFRSEERFKSPPILPPHLLQVILNKDTNISCDPALLPEPNHVMLNHLYALSIKDSVMVLSATHRYKKKYVTTLLYKPI [G55E] |
